In patent US20190241657A1 (Sanofi, published 2019):

Legend:
[1] = target: T1, CD123 on THP-1 target cells (UniProt P26951 19-378); experiment: cell-based or functional assay
[2] = target: T1, CD123 on THP-1 target cells; experiment: cell-based or functional assay; remark: listed apart in the source
[3] = target: T1, CD123 on THP-1 target cells; experiment: cell-based or functional assay; remark: listed apart in the source
[4] = target: T1, CD123 on THP-1 target cells; experiment: cell-based or functional assay; remark: listed apart in the source
[5] = target: T2, mature human CD123 His-II tagged Fc-fusion protein (human); experiment: SPR (Biacore), CD123-Fc-His captured with His capture kit, CODV as analyte, 1:1 Langmuir with mass transfer
T2 construct: also called huCD123; CD123-Fc-His
T2 sequence (chain, as listed by the source limits assumed): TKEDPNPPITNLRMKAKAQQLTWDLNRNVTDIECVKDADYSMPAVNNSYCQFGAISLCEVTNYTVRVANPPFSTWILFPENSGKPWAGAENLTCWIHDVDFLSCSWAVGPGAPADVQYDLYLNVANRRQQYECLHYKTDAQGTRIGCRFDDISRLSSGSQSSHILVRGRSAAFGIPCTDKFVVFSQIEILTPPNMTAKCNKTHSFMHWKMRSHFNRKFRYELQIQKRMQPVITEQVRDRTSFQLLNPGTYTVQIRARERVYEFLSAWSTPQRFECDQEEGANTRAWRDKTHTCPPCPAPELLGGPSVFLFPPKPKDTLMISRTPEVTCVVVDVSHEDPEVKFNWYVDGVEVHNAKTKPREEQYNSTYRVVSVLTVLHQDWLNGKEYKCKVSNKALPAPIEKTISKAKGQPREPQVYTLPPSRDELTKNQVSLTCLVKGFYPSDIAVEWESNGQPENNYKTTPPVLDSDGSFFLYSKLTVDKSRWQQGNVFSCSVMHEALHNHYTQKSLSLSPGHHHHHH
Description: (§1) Binding affinities of CODV antibody-like binding proteins to human CD3ε/δ and human CD123 were measured by surface plasmon resonance (SPR) using a Biacore3000 or Biacore T200 instrument (GE Healthcare) with HBS-EP (GE Healthcare) as assay buffer). Capture of CD3ε/δ-Fc or CD123-Fc-His fusion proteins was achieved using the His capture kit (GE Healthcare). The capture antibody was coupled to CM5 chips (GE Healthcare) to approx. 12.000 RU using the amine coupling kit (BR-100-50, GE Healthcare). The CD3εδ-Fc or CD123-Fc-His fusion proteins were captured at 10 μl/min to yield Rmax values of 30 RU. Binding kinetics with the CODV antibody-like binding proteins was measured at 30 μl/min Twofold dilutions of CODV antibody-like binding proteins from 3 to 200 nM in assay buffer were used. All Fab concentrations were run in duplicate together with duplicate buffer blanks for double referencing. Regeneration of the capture surface was performed with a 1 min injection of 10 mM Glycine pH1.5 at 30 μl/min. For data analysis the BIAevaluation software (GE Healthcare) was used. Data were fit globally using a 1:1 Langmuir model with mass transfer.

[6] = target: T2, mature human CD123 His-II tagged …; experiment: Biacore
Description: Cytotoxic effects of the CODV-Fab-TL1-RF “hz20G6×hz7G3”, CODV-Fab-OL1 “hz20G6×hz7G3” and the single chain DART MGD006 were assessed. Affinities to the CD3ε/δ-complex and CD123 of each bispecific construct were measured by Biacore. Furthermore, a cytotoxic assay was performed as described in 2.8 (table 3).
as §1, with “Data were fit globally using a 1:1 Langmuir model with mass transfer.” left out

[7] = target: T1, CD123 on THP-1 target cells; experiment: cell-based or functional assay; remark: listed apart in the source
[8] = target: T1, CD123 on THP-1 target cells; experiment: cell-based or functional assay; remark: listed apart in the source
[9] = target: T1, CD123 on THP-1 target cells; experiment: cell-based or functional assay; remark: listed apart in the source

T1 sequence (P26951 19-378): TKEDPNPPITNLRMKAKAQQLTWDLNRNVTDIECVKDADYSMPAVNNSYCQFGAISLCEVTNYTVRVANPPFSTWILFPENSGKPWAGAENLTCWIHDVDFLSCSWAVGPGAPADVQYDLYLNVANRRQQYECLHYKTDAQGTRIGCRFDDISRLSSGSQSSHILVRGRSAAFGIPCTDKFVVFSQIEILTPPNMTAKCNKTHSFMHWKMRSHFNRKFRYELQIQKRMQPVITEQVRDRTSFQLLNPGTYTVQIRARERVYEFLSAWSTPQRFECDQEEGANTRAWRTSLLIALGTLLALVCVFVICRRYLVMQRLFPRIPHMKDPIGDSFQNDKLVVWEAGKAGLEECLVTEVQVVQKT

Binder	flow cytometry based cytotoxic assay, EC50 (pM) GMean [1] [pM]	T-cell Activation with THP-1 target cells, CD4+/CD69+ EC50 (pM) GMean [2] [pM]	T-cell Activation with THP-1 target cells, CD8+/CD69+ EC50 (pM) GMean [2] [pM]	Activity - CD4+/CD69+ % Activation C = 100 nM Mean (with THP-1 target cells) [3] [%]	Activity - CD8+/CD69+ % Activation C = 100 nM Mean (with THP-1 target cells) [4] [%]	Kd [5] [nM]	koff [5] [s⁻¹]	kon [5] [M⁻¹ s⁻¹]	Kd [6] [nM]	T cell activation with THP-1 target cells, CD4+ T cells (% CD69+ cells) EC50 [7] [nM]	T cell activation with THP-1 target cells, CD8+ T cells (% CD69+ cells) EC50 [7] [nM]	Cytotoxic assay (THP cells) EC50 [8] [nM]	Jurkat-NFAT-Luc reporter cell activation with THP1 cells, EC50 [9] [nM]
CODV-Fab-TL1-Knob-RFxhole "hz20G6xhz7G3" antibody-like binding protein (bispecific antibody, human IgG1, kappa, L234A L235A, CODV-Fab-TL format; IgG1 backbone with LALA mutation) light: not shown heavy: QVQLVESGGGVVQPGRSLRLSCAASGFTFTKAWMHWVRQAPGKQLEWVAQIKDKSNSYATYYADSVKGRFTISRDDSKNTLYLQMNSLRAEDTAVYYCRGVYYALSPFDYWGQGTLVTVSSEVQLVQSGAEVKKPGESLKISCKGSGYSFTDYYMKWARQMPGKGLEWMGDIIPSSGATFYNQKFKGQVTISADKSISTTYLQWSSLKASDTAMYYCARSHLLRASWFAYWGQGTMVTVSSASTKGPSVFPLAPSSKSTSGGTAALGCLVKDYFPEPVTVSWNSGALTSGVHTFPAVLQSSGLYSLSSVVTVPSSSLGTQTYICNVNHKPSNTKVDKKVEPKSCDKTHTCPPCPAPEAAGGPSVFLFPPKPKDTLMISRTPEVTCVVVDVSHEDPEVKFNWYVDGVEVHNAKTKPREEQYNSTYRVVSVLTVLHQDWLNGKEYKCKVSNKALPAPIEKTISKAKGQPREPQVCTLPPSRDELTKNQVSLSCAVKGFYPSDIAVEWESNGQPENNYKTTPPVLDSDGSFFLVSKLTVDKSRWQQGNVFSCSVMHEALHNHYTQKSLSLSPG	0.8	0.7	1.2	63	68	0.215	0.000102	474000	–	–	–	–	–
CODV-Fab-TL1-RF "hz20G6xhz7G3" antibody-like binding protein (bispecific antibody, human IgG1, kappa, L234A L235A, Anti-CD3 (hz20G6) x anti-CD123 (hz7G3) in the CODV-Fab-TL format; IgG1 backbone with LALA mutation; also called hz20G6xhz7G3 CODV-Fab-TL1-RF; PB05126) light: DIVMTQSPDSLAVSLGERATINCESSQSLLNSGNQKNYLTWYQQKPGQPPKPLIYWASTRESGVPDRFSGSGSGTDFTLTISSLQAEDVAVYYCQNDYSYPYTFGQGTKLEIKGGSGSSGSGGDIVMTQTPLSLSVTPGQPASISCKSSQSLVHNNANTYLSWYLQKPGQSPQSLIYKVSNRFSGVPDRFSGSGSGTDFTLKISRVEAEDVGVYYCGQGTQYPFTFGSGTKVEIKGGSGSSGSGGRTVAAPSVFIFPPSDEQLKSGTASVVCLLNNFYPREAKVQWKVDNALQSGNSQESVTEQDSKDSTYSLSSTLTLSKADYEKHKVYACEVTHQGLSSPVTKSFNRGECDKTHTCPPCPAPEAAGGPSVFLFPPKPKDTLMISRTPEVTCVVVDVSHEDPEVKFNWYVDGVEVHNAKTKPREEQYNSTYRVVSVLTVLHQDWLNGKEYKCKVSNKALPAPIEKTISKAKGQPREPQVYTLPPSRDELTKNQVSLTCLVKGFYPSDIAVEWESNGQPENNYKTTPPVLDSDGSFFLYSKLTVDKSRWQQGNVFSCSVMHEALHNRFTQKSLSLSPG heavy: not shown	0.8	0.5	0.7	75	78	0.339	0.000104	308000	0.2	0.0032	0.0099	0.001	0.444
CODV-Fab-TL1-Knobxhole-RF "hz20G6xhz7G3" antibody-like binding protein (bispecific antibody, human IgG1, kappa, L234A L235A, CODV-Fab-TL format; IgG1 backbone with LALA mutation) light: not shown heavy: QVQLVESGGGVVQPGRSLRLSCAASGFTFTKAWMHWVRQAPGKQLEWVAQIKDKSNSYATYYADSVKGRFTISRDDSKNTLYLQMNSLRAEDTAVYYCRGVYYALSPFDYWGQGTLVTVSSEVQLVQSGAEVKKPGESLKISCKGSGYSFTDYYMKWARQMPGKGLEWMGDIIPSSGATFYNQKFKGQVTISADKSISTTYLQWSSLKASDTAMYYCARSHLLRASWFAYWGQGTMVTVSSASTKGPSVFPLAPSSKSTSGGTAALGCLVKDYFPEPVTVSWNSGALTSGVHTFPAVLQSSGLYSLSSVVTVPSSSLGTQTYICNVNHKPSNTKVDKKVEPKSCDKTHTCPPCPAPEAAGGPSVFLFPPKPKDTLMISRTPEVTCVVVDVSHEDPEVKFNWYVDGVEVHNAKTKPREEQYNSTYRVVSVLTVLHQDWLNGKEYKCKVSNKALPAPIEKTISKAKGQPREPQVCTLPPSRDELTKNQVSLSCAVKGFYPSDIAVEWESNGQPENNYKTTPPVLDSDGSFFLVSKLTVDKSRWQQGNVFSCSVMHEALHNRFTQKSLSLSPG	1.1	0.9	1.6	64	70	0.193	8.42e-05	437000	–	–	–	–	–
Single chain antibody DART format MGD006 (CD123xCD3 bi-specific diabody) (bispecific antibody, The two chains are covalently bonded to one another by a disulfide bond; also called single chain DART; CD123xCD3 bispecific DART) chain 1: QAVVTQEPSLTVSPGGTVTLTCRSSTGAVTTSNYANWVQQKPGQAPRGLIGGTNKRAPWTPARFSGSLLGGKAALTITGAQAEDEADYYCALWYSNLWVFGGGTKLTVLGGGGSGGGGEVQLVQSGAELKKPGASVKVSCKASGYTFTDYYMKWVRQAPGQGLEWIGDIIPSNGATFYNQKFKGRVTITVDKSTSTAYMELSSLRSEDTAVYYCARSHLLRASWFAYWGQGTLVTVSSGGCGGGEVAALEKEVAALEKEVAALEKEVAALEK chain 2: DFVMTQSPDSLAVSLGERVTMSCKSSQSLLNSGNQKNYLTWYQQKPGQPPKLLIYWASTRESGVPDRFSGSGSGTDFTLTISSLQAEDVAVYYCQNDYSYPYTFGQGTKLEIKGGGSGGGGEVQLVESGGGLVQPGGSLRLSCAASGFTFSTYAMNWVRQAPGKGLEWVGRIRSKYNNYATYYADSVKDRFTISRDDSKNSLYLQMNSLKTEDTAVYYCVRHGNFGNSYVSWFAYWGQGTLVTVSSGGCGGGKVAALKEKVAALKEKVAALKEKVAALKE	–	–	–	–	–	–	–	–	0.2	0.001	0.0035	0.0003	0.37
